# Data taken from paper PMC12822440, “An Aptamer‐Based EXACT Anticoagulant as a Sustainable, Animal‐Free Alternative to Unfractionated Heparin”.
# Assays:
# [1] = molecular target: T1, thrombin (alpha-thrombin) (UniProt P00734;P00734 315-363;364-622); experiment: filter binding; dabigatran covalently attached to the aptamer, occupies the active site; Nitrocellulose filter binding, 32P 5'-labelled aptamer (500 CPM/uL), selection buffer (composition not given), 5 min at room temperature, n = 2
# prothrombin = prothrombin (UniProt P00734 44-622); experiment: filter binding; dabigatran covalently attached to the aptamer; Nitrocellulose filter binding, 32P 5'-labelled aptamer (500 CPM/uL), selection buffer (composition not given), 5 min at room temperature, n = 2; details: protein: commercial; label: 5'-32P
# [2] = molecular target: T1, thrombin (alpha-thrombin); experiment: filter binding; Nitrocellulose filter binding, 32P 5'-labelled aptamer (500 CPM/uL), selection buffer (composition not given), 5 min at room temperature, n = 2
Binder,Kd [1],Kd (prothrombin),Kd [2]
"GGTTGGTGTGGTTGGAAAAAAAAAAAA (structured_DNA, 3'-dabigatran conjugate (DAB) through 12-nt dA linker) [HD1-12A-DAB]",0.0131 nM,296 nM,–
GGTTGGTGTGGTTGG (structured_DNA) [HD1],–,–,110 nM
